± gives the standard error. For some assays here: Variants at the floor of the assay were thinned out.
B1: glmS ribozyme (parent)
chain: AUAAAAGCGCCAGAACUACAGAAAUGUAGUUGACGAGGAGGAGGUUUAUCGAAUUUUCGGCGGAUGCCUCCAAA

Columns and labels:
Conditions in all cases: with glucosamine-6-phosphate
glucosamine-6-phosphate [1] = variants of: B1; experiment: kcat; higher = faster cleavage; RNA array
How it was run: (§1)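 A hybridised Cy3 probe tracked barcoded ribozyme variants, transcribed in situ by E. coli RNA polymerase on sequenced MiSeq chips, at 37 °C. The variants received 40 μM to 10 mM glucosamine-6-phosphate in HEPES/KCl/Mg(OAc)2 buffer. kobs came from decay fits and kcat and KM from weighted Michaelis–Menten fits.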

glucosamine-6-phosphate [2] = variants of: B1; experiment: KM; higher = weaker cofactor use; RNA array
How it was run: as §1

glucosamine-6-phosphate [3] = variants of: B1; experiment: self-cleavage kobs at 160 uM GlcN6P; higher = faster cleavage; RNA array
How it was run: as §1

glucosamine-6-phosphate [4] = variants of: B1; experiment: self-cleavage kobs at 640 uM GlcN6P; higher = faster cleavage; RNA array
How it was run: as §1

glucosamine-6-phosphate [5] = variants of: B1; experiment: self-cleavage kobs at 2500 uM GlcN6P; higher = faster cleavage; RNA array
How it was run: as §1

glucosamine-6-phosphate [6] = variants of: B1; experiment: self-cleavage kobs at 10000 uM GlcN6P; higher = faster cleavage; RNA array
How it was run: as §1

glucosamine-6-phosphate [7] = variants of: B1; experiment: self-cleavage kobs at 40 uM GlcN6P; higher = faster cleavage; RNA array
How it was run: as §1

Variant	kcat (glucosamine-6-phosphate [1])	KM (glucosamine-6-phosphate [2])	self-cleavage kobs at 160 uM GlcN6P (glucosamine-6-phosphate [3])	self-cleavage kobs at 640 uM GlcN6P (glucosamine-6-phosphate [4])	self-cleavage kobs at 2500 uM GlcN6P (glucosamine-6-phosphate [5])	self-cleavage kobs at 10000 uM GlcN6P (glucosamine-6-phosphate [6])	self-cleavage kobs at 40 uM GlcN6P (glucosamine-6-phosphate [7])
G40C U55C	0.000721 ± 0.00014 s⁻¹	4590 ± 1400 µM	2.05e-05 ± 5.9e-06 s⁻¹	0.00012 ± 3.6e-05 s⁻¹	0.000287 ± 8.2e-05 s⁻¹	0.000483 ± 7.8e-05 s⁻¹	–
A39U U65G	0.00369 ± 0.0011 s⁻¹	2880 ± 1200 µM	0.0002 ± 2.9e-05 s⁻¹	0.000445 ± 9.7e-05 s⁻¹	0.00164 ± 0.00021 s⁻¹	0.0031 ± 0.00036 s⁻¹	6.84e-05 ± 8.5e-06 s⁻¹
G40A C58U	4.57e-05 ± 1.8e-05 s⁻¹	–	–	–	–	–	–
G37C G60A C68U	1.98e-05 ± 7.3e-06 s⁻¹	–	–	–	–	–	–
A39U U45G	0.00909 ± 0.0007 s⁻¹	2650 ± 300 µM	0.000471 ± 8.8e-05 s⁻¹	0.00165 ± 0.00028 s⁻¹	0.00481 ± 0.00079 s⁻¹	0.00711 ± 0.00075 s⁻¹	0.000146 ± 2e-05 s⁻¹
G41U C58A	1.21e-05 ± 4e-06 s⁻¹	–	–	–	–	–	–
G41C A64G	0.000146 ± 1.2e-05 s⁻¹	1760 ± 510 µM	–	3.48e-05 ± 8.4e-06 s⁻¹	0.000107 ± 1.8e-05 s⁻¹	0.000122 ± 8.8e-06 s⁻¹	–
G38C C50U C61G	< 1e-05 s⁻¹	–	–	< 1e-05 s⁻¹	–	–	–
G38A C71A	< 1e-05 s⁻¹	–	–	–	–	< 1e-05 s⁻¹	–
G41C C68U	< 1e-05 s⁻¹	–	–	< 1e-05 s⁻¹	–	–	< 1e-05 s⁻¹
A39C U69C	0.000195 ± 3.5e-05 s⁻¹	–	–	6.94e-05 ± 1.8e-05 s⁻¹	0.000211 ± 3.5e-05 s⁻¹	0.000166 ± 1.9e-05 s⁻¹	–
G40C C71A	0.00654 ± 0.0028 s⁻¹	–	0.000451 ± 6.2e-05 s⁻¹	0.00213 ± 0.00024 s⁻¹	–	0.00527 ± 0.00096 s⁻¹	0.000225 ± 3.8e-05 s⁻¹
G40A G43C	< 1e-05 s⁻¹	–	–	< 1e-05 s⁻¹	–	–	–
A36U G59A G63U C71U	< 1e-05 s⁻¹	–	–	–	< 1e-05 s⁻¹	–	–
A39U G40C	0.00382 ± 0.00081 s⁻¹	1850 ± 560 µM	0.000253 ± 4.7e-05 s⁻¹	0.00089 ± 0.0001 s⁻¹	0.00244 ± 0.00039 s⁻¹	0.00324 ± 0.00043 s⁻¹	0.00011 ± 1.5e-05 s⁻¹
A39U G40U	0.00237 ± 0.00036 s⁻¹	997 ± 220 µM	0.000285 ± 4.1e-05 s⁻¹	0.00112 ± 0.00016 s⁻¹	0.00163 ± 0.00025 s⁻¹	0.00209 ± 0.00044 s⁻¹	9.94e-05 ± 1.5e-05 s⁻¹
A39U U69G	6.87e-05 ± 1e-05 s⁻¹	–	–	4.85e-05 ± 1.5e-05 s⁻¹	4.76e-05 ± 1.3e-05 s⁻¹	7.29e-05 ± 1.5e-05 s⁻¹	–
G38C U47A	< 1e-05 s⁻¹	–	< 1e-05 s⁻¹	–	< 1e-05 s⁻¹	< 1e-05 s⁻¹	< 1e-05 s⁻¹

Variant	kcat (glucosamine-6-phosphate [1])	KM (glucosamine-6-phosphate [2])	self-cleavage kobs at 160 uM GlcN6P (glucosamine-6-phosphate [3])	self-cleavage kobs at 640 uM GlcN6P (glucosamine-6-phosphate [4])	self-cleavage kobs at 2500 uM GlcN6P (glucosamine-6-phosphate [5])	self-cleavage kobs at 10000 uM GlcN6P (glucosamine-6-phosphate [6])	self-cleavage kobs at 40 uM GlcN6P (glucosamine-6-phosphate [7])
G35C C68U	< 1e-05 s⁻¹	–	< 1e-05 s⁻¹	–	–	–	< 1e-05 s⁻¹
A39C A52U	8.87e-05 ± 2.8e-06 s⁻¹	2380 ± 210 µM	–	1.71e-05 ± 7.8e-06 s⁻¹	4.62e-05 ± 6.1e-06 s⁻¹	7.13e-05 ± 7.2e-06 s⁻¹	< 1e-05 s⁻¹
A36U U69A	4.58e-05 ± 1.6e-05 s⁻¹	–	–	–	7.35e-05 ± 2.7e-05 s⁻¹	–	5.11e-05 ± 1.6e-05 s⁻¹
C34G C70A	1.99e-05 ± 6.8e-06 s⁻¹	–	–	–	–	–	–
A39U U56G	0.0257 ± 0.011 s⁻¹	–	0.000402 ± 8.7e-05 s⁻¹	0.0021 ± 0.00031 s⁻¹	0.00893 ± 0.0013 s⁻¹	0.0139 ± 0.0021 s⁻¹	0.000177 ± 2.7e-05 s⁻¹
A39U U56C	0.00176 ± 0.00058 s⁻¹	2130 ± 950 µM	0.000149 ± 2.8e-05 s⁻¹	0.000351 ± 5.4e-05 s⁻¹	0.000804 ± 0.00019 s⁻¹	0.00192 ± 0.0004 s⁻¹	3.9e-05 ± 8.2e-06 s⁻¹
A39U G60A	2.79e-05 ± 2e-06 s⁻¹	5820 ± 1100 µM	< 1e-05 s⁻¹	–	–	–	–
A39G G44U	0.00229 ± 0.0007 s⁻¹	6340 ± 3000 µM	–	0.000198 ± 5e-05 s⁻¹	0.000853 ± 0.00022 s⁻¹	0.00136 ± 0.00023 s⁻¹	–
A39G G44C	0.000507 ± 6.5e-05 s⁻¹	2450 ± 660 µM	–	0.000101 ± 1.9e-05 s⁻¹	0.000327 ± 6.4e-05 s⁻¹	0.000394 ± 4.8e-05 s⁻¹	–
G41C U55A	8.46e-05 ± 5e-06 s⁻¹	1280 ± 280 µM	–	–	5.87e-05 ± 2e-05 s⁻¹	7.36e-05 ± 2e-05 s⁻¹	< 1e-05 s⁻¹
G32U U65G	0.00128 ± 0.00061 s⁻¹	–	–	–	2.49e-05 ± 1.1e-05 s⁻¹	9.34e-05 ± 1.3e-05 s⁻¹	< 1e-05 s⁻¹
G40A G66U	0.000238 ± 1.9e-05 s⁻¹	2050 ± 330 µM	–	6.02e-05 ± 1.2e-05 s⁻¹	0.000124 ± 2e-05 s⁻¹	0.000203 ± 3.5e-05 s⁻¹	–
G41C G66C	1.55e-05 ± 2.4e-06 s⁻¹	–	–	< 1e-05 s⁻¹	–	–	< 1e-05 s⁻¹
A39G G59A	0.000106 ± 2.1e-05 s⁻¹	–	–	–	7.4e-05 ± 1.8e-05 s⁻¹	8.4e-05 ± 1.1e-05 s⁻¹	–
A33C U55C	< 1e-05 s⁻¹	–	< 1e-05 s⁻¹	< 1e-05 s⁻¹	–	–	< 1e-05 s⁻¹
A33C G66U	2.18e-05 ± 4.2e-07 s⁻¹	2420 ± 190 µM	–	–	–	–	< 1e-05 s⁻¹
G37A C71A	0.000462 ± 4.6e-05 s⁻¹	1520 ± 410 µM	5.16e-05 ± 2e-05 s⁻¹	0.000114 ± 2.7e-05 s⁻¹	0.000331 ± 4.6e-05 s⁻¹	0.000391 ± 3.8e-05 s⁻¹	–

From the supplement of paper PMC7125110
